Source: the supplement of paper PMC9732359
± gives the uncertainty stated by the source.

Assay: protein stability index of a GFP-peptide fusion (yeast GPS) (PSI 1-4); higher = more stable; sorted into four equal gates, so the index is relative within each strain
Method in brief: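 For each peptide, the protein stability index sums the read frequency in every gate after multiplying it by the gate number. Read frequencies came from plasmids that were PCR-amplified from each gate and Illumina-sequenced, with reads assigned to strains by barcodes. The gates were four equal bins of GFP/Cherry fluorescence ratio applied to mid-log yeast in leucine-free medium carrying a pooled library of tiled 17-residue yeast protein peptides fused downstream of GFP on a Cherry-expressing plasmid.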

| Sequence | protein stability index (doa10∆) | protein stability index (pdr5∆) | protein stability index (san1∆) | protein stability index (ubr1∆) |
| --- | --- | --- | --- | --- |
| EYMVQYIDEMYNHNDGG [RRI1] | 3.03 ± 0.052 | 3.24 ± 0.076 | 3.21 ± 0.14 | 3.19 ± 0.087 |
| CLLSIPKSTKGKILTIK [YML103C/NUP188] | 1.67 ± 0.053 | 1.87 ± 0.062 | 1.66 ± 0.11 | 1.97 ± 0.054 |
| KQENSTLLKKANRDDVK [RPC82] | 2.72 ± 0.085 | 2.51 ± 0.13 | 3.16 ± 0.22 | 3.12 ± 0.09 |
| SIDDHPYNLNLFPNELY [RPC31] | 2.14 ± 0.048 | 2.53 ± 0.061 | 2.69 ± 0.088 | 2.68 ± 0.064 |
| LESLKPIDDTMTLLTDS [MTW1] | 3 ± 0.092 | 2.95 ± 0.054 | 3.04 ± 0.058 | 2.98 ± 0.046 |
| NYIENMNEMCKKINAKE [RPN8] | 2.84 ± 0.045 | 3.07 ± 0.059 | 3.12 ± 0.043 | 3 ± 0.039 |
| RPSFQNNRISNANEISA [SWP82] | 2.22 ± 0.043 | 2.29 ± 0.047 | 1.99 ± 0.082 | 2.47 ± 0.054 |
| TNNMEKIIEDLRQKHEF [SMC2] | 3.12 ± 0.055 | 2.9 ± 0.046 | 3.13 ± 0.033 | 3.15 ± 0.033 |
| ALLTKRLYPHWDHPVIA [CSN12] | 2.19 ± 0.13 | 1.91 ± 0.1 | 1.7 ± 0.17 | 1.89 ± 0.068 |
| SQLQEQFNKILPEPTEG [FAS1] | 2.82 ± 0.1 | 3.17 ± 0.12 | 2.64 ± 0.076 | 2.71 ± 0.097 |
| LLHERKLLNDLALENGE [NUT1] | 2.75 ± 0.06 | 2.66 ± 0.073 | 2.54 ± 0.083 | 2.84 ± 0.039 |
| SHIESDSTSHNNGSSDK [MED1] | 2.89 ± 0.042 | 2.94 ± 0.038 | 2.84 ± 0.042 | 3.01 ± 0.032 |
| EKACQVLKYMLLSKIML [RPN6] | 1.76 ± 0.049 | 1.49 ± 0.048 | 1.13 ± 0.1 | 1.41 ± 0.031 |
| NDPEYMDTSDDAFVATA [DLS1] | 3.1 ± 0.17 | 3.49 ± 0.16 | 3.33 ± 0.14 |  |
| NSPTSFFDGSASSTPIP [YOR098C/NUP1] | 3.19 ± 0.07 | 2.8 ± 0.049 | 2.94 ± 0.052 | 2.84 ± 0.046 |
| DNNTASNMLGSNEDVMM [RPB3] | 2.04 ± 0.25 | 2.43 ± 0.17 | 2.31 ± 0.25 |  |
| VVPNEKADDDSVTIISA [ASC1] | 2.98 ± 0.072 | 2.9 ± 0.082 | 3.05 ± 0.049 | 2.91 ± 0.076 |
| TDLRFQSSAIGALQESV [HHT1] | 1.32 ± 0.13 | 1.41 ± 0.13 | 1.32 ± 0.17 | 1.32 ± 0.23 |
| KMFQDIRLSKILEDDFA [CDC53] | 2.94 ± 0.062 | 3.04 ± 0.088 | 2.62 ± 0.072 | 2.93 ± 0.063 |
| EINPFLLGTMAGGAADC [PRE2] | 2.88 ± 0.18 | 3.22 ± 0.12 | 2.75 ± 0.15 | 2.61 ± 0.15 |
| IPPPMPKNQQYRAFGSI [MED7] | 2.04 ± 0.083 | 2.31 ± 0.093 | 2.42 ± 0.1 | 2.04 ± 0.071 |
| MIQKVMEYLKSSKSLDL [RPN5] | 2.6 ± 0.051 | 1.55 ± 0.039 | 2.3 ± 0.057 | 2.46 ± 0.05 |
| TLFCCLLRSRLATRRVL [RPO21] | 1.31 ± 0.068 | 1.22 ± 0.06 | 1.15 ± 0.15 | 1.2 ± 0.05 |
| QRRSWRQYVGQLAPSSV [DIS3] | 2.06 ± 0.077 | 2.45 ± 0.18 |  | 2.36 ± 0.078 |
| ICYDVNDWQMLEMLKPC [RPB2] | 2.62 ± 0.063 | 2.67 ± 0.086 | 2.46 ± 0.073 | 2.61 ± 0.062 |
| LSEIESLDEILLPANLL [SRP68] | 3.14 ± 0.053 | 3.08 ± 0.052 | 3.02 ± 0.042 | 3.037 ± 0.027 |
